Reference: US20090053196A1 (LUDWIG MAXIMILLIANS UNIVERSITAT MUNCHEN, published 2009)

Columns and labels:
[1] = target: T1, myc-tagged HSP-1 (^mycHSP-1) (Caenorhabditis elegans, UniProt P09446 1-640); assay: summary sentence of Example 5 on the earlier binding assays
T1 construct: Bacterially expressed from pET-^mycHSP-1; also called C. elegans Hsp70 homolog; Hsp70 ortholog HSP-1; not shown: N-terminal myc tag introduced 5' of the cDNA by PCR (pET21a)
Experimental: (§1) Binding of UNC-45^FLAG, ^mycCHN-1, ^mycCHN-1^ΔU-box, ^mycCHN-1^ΔTPR, ^mycCHN-1^Δ, ^mycUFD-2, ^mycUFD-2^{ΔU-box,} ^mycHSP-1 to GST-UFD-2 or GST-CHN-1 was done in buffer A [10 mM Tris pH 8, 10 mM DTT, Complete protease inhibitors (Boehringer)]+150 mM NaCl at 4° C. for 60 min. Glutathione-Sepharose beads were washed at least five times in buffer A with 0.1% Triton X-100 and 150 mM NaCl and bound proteins were eluted with SDS-PAGE sample buffer. Sonicated lysates from wild-type worms expressing the transgene P_unc-54::unc-45^FLAG were incubated with anti-FLAG M2-agarose beads (Sigma) in 50 mM Tris/HCl (pH 8.0), 100 mM NaCl, 10% glycerol, 1% Triton X-100 and 5 mM PMSF at 4° C. for 3 hours. Samples were precipitated with protein G-agarose beads (Amersham Pharmacia). Immunoprecipitates were washed at least five times in the same lysis buffer, were eluted with SDS-PAGE sample buffer and were separated by SDS gel electrophoresis followed by Western blotting using anti-FLAG M2 monoclonal antibodies (Sigma) or anti-Ubiquitin monoclonal antibodies (Chemicon).

GST = target: T2, GST (UniProt P08515 1-218 = GST); assay: GST pull-down with glutathione-Sepharose beads
T2 construct: Negative control of the pull-down experiments; also called GST alone; immobilized GST
Experimental: (C) Complex of CHN-1, UFD-2 and UNC-45. GST-UFD-2 was incubated with purified FLAG-tagged UNC-45 (UNC-45^FLAG) and myc-tagged CHN-1 (^mycCHN-1) together, ^mycCHN-1 or UNC-45^FLAG alone and pulled down with glutathione-Sepharose beads. GST alone with UNC-45^FLAG and ^mycCHN-1 served as the negative control.
as §1

[2] = target: T3, FLAG-tagged UNC-45 (UNC-45^FLAG) (Caenorhabditis elegans); assay: GST pull-down, equimolar GST-UFD-2 or GST-CHN-1 with identical amounts of purified UNC-45
T3 construct: Purified as described in Barral 2002; also called ^FLAGUNC-45; purified UNC-45
Experimental: (B) In vitro binding of UNC-45 by UFD-2 or CHN-1. Equimolar amounts of GST-UFD-2 and GST-CHN-1 were incubated with the same amount of purified FLAG-tagged UNC-45 (UNC-45^FLAG) and pulled down with glutathione-Sepharose beads. GST alone with UNC-45^FLAG served as the negative control.
Binding of UNC-45^FLAG, ^mycCHN-1, ^mycCHN-1^ΔU-box, ^mycCHN-1^ΔTPR, ^mycCHN-1^Δ, ^mycUFD-2, ^mycUFD-2^{ΔU-box,} ^mycHSP-1 to GST-UFD-2 or GST-CHN-1 was done in buffer A [10 mM Tris pH 8, 10 mM DTT, Complete protease inhibitors (Boehringer)]+150 mM NaCl at 4° C. for 60 min. Glutathione-Sepharose beads were washed at least five times in buffer A with 0.1% Triton X-100 and 150 mM NaCl and bound proteins were eluted with SDS-PAGE sample buffer. […]
To compare their binding efficiencies, pull-down experiments were performed using equimolar amounts of GST-UFD-2 or GST-CHN-1 with identical amounts of purified UNC-45. […] Binary mixtures containing immobilized UFD-2 and either UNC-45 or CHN-1, and a ternary mixture containing all three proteins were set up and the resulting complexes analyzed by SDS-polyacrylamide gel electrophoresis. Approximately equimolar complexes were detected between UFD-2 and both CHN-1 and UNC-45 in the binary mixtures and among the three proteins in the ternary mixture. […]

T1 sequence (P09446 whole entry): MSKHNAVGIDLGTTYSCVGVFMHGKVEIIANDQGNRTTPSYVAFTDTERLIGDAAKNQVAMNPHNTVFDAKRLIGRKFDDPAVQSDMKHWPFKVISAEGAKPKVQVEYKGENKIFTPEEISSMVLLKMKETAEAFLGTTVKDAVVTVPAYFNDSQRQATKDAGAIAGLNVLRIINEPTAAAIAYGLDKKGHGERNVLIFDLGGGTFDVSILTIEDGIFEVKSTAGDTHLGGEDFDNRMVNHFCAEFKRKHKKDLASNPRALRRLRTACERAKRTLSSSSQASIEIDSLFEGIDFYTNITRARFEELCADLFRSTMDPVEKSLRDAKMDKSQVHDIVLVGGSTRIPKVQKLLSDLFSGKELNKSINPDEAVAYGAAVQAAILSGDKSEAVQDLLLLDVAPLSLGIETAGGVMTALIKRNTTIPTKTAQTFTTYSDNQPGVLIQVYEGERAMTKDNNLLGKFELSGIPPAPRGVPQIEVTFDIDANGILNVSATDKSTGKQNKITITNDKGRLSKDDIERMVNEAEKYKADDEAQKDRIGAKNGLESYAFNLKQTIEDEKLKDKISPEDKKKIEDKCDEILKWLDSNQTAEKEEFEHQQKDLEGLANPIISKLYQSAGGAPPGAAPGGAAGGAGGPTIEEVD
T2 sequence (P08515 whole entry): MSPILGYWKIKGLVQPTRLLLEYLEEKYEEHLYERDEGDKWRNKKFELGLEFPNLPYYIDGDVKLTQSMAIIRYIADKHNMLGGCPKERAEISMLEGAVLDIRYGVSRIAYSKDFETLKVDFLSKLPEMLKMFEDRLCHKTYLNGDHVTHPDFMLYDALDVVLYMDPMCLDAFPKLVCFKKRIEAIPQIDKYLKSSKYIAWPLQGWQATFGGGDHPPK

B1: GST-CHN-1 (enzyme)
chain: MSSGAEQHNTNGKKCYMNKRYDDAVDHYSKAIKVNPLPKYYQNRAMCYFQLNNLKMTEEDCKRALELSPNEVKPLYFLGNVFLQSKKYSEAISCLSKALYHNAVITNAPDIENALKRARHQKYEEEESKRIVQDVEFHTYLESLIEKDRQENSENPEELQRADMAKKRLTELTLATQEKRQNREVPEMLCGKITLELMKEPVIVPSGITYDREEIVQHLRRIGHFDPVTRKPLTENEIIPNYALKEVIEKFLDDNPWAKYEPGGMV
notes: GST fusion from pGEX-CHN-1, purified from E. coli; also called GST-tagged version of CHN-1; not shown: glutathione S-transferase (GST) encoded by vector pGEX4T1
[1]
  binding result: binds

B2: myc-tagged CHN-1 (^mycCHN-1) (enzyme)
chain: MSSGAEQHNTNGKKCYMNKRYDDAVDHYSKAIKVNPLPKYYQNRAMCYFQLNNLKMTEEDCKRALELSPNEVKPLYFLGNVFLQSKKYSEAISCLSKALYHNAVITNAPDIENALKRARHQKYEEEESKRIVQDVEFHTYLESLIEKDRQENSENPEELQRADMAKKRLTELTLATQEKRQNREVPEMLCGKITLELMKEPVIVPSGITYDREEIVQHLRRIGHFDPVTRKPLTENEIIPNYALKEVIEKFLDDNPWAKYEPGGMV
notes: Full-length CHN-1, bacterially expressed from pET-^mycCHN-1; also called C. elegans CHIP ortholog; not shown: N-terminal myc tag introduced 5' of the cDNA by PCR (pET21a)
GST
  binding result: no binding

B3: GST-UFD-2 (enzyme, Caenorhabditis elegans, UniProt Q09349 1-984, looked up)
chain: MIEDEKAGLQPMDISDASVFFFQADVESKDFLTSLFDCEGKSDDRMLRYADAIIDVQNLNFDVSPQCLQSNIAEIITKFVLLSQDGSRRGLSRSFNFIDPDIIAGCREEDAIEFLLINFVRCHHELGKSGTSNCYKKTLESTRKAVFSVFVMIQRGYLESQLRSQHASLVFTKRLLEDTVSNVFLRTLVEYLASTDECDEDAITETFNPIFGILRSGIICQRFEDNKDEIVRQILRVMNLLLSIRLPSNGPRPLSNLLVNREDFLPTPSEKIQGREFGLMSFLGPFFSYGLESSARRPNHRVFVDCEEDARKYDGSVNTEQKLYFQRMDPIRTMLHQLMLPLASDQGSRNKTLRWIATIISTNDIRTRSHYDPSDVLCDHYMTNFLSVMYMFSEKIDLSKIIVDYPFLPSSLINISKETRLKMDESGAVAFASQFADRPDEYHFSTVCFFLTIAAQRLVIPPLMNQISEYSRHLKELKHKINALKEKLNTVSGFERAEVEKKLNYETEHWKLMSRHLLCVKTQAQDPALMASSMDFVDKQMKFILNLLCDNLDLLGDDSQLPTEVSQMFCALPEYFLEDALDFYIFAISNGMKLLMERNADWISRLTVLFTQYHYIKSPFLVSKLVRVLSSIQPPLWFNVVRLRMAQENLLMCMIKFYSDFEDNGDFYEKFNVRGNIQYMLEKMEEDMFYKGKFMDMARECGAEFIRFVNMVINDATWCIDESLSGLKSIHDVEKKMANKVEWDNTDQEIRNQDLGVYEEAKRKVKGWLGTAKSNLKLLLSITVNSPEPFRTPVLGERLAAMLNHNLSQLIGSKASELKVKDPRSYGWEPREFVSLLISIYLKLNMPAFVKYIAYDERTYSPEFFHNAIECMRKNSIVGFSQLESFEHLAEDVKKEYEAKAELEEEYDDVPEEFKDPIMDAIMVDPVKLPSGHVMDRAVIERHLLSTPNNPFNRAPLSHNELSPDSELKAKIQEWICQKRNSKK
notes: GST fusion from pGEX-UFD-2, purified from E. coli; also called immobilized GST-UFD-2; not shown: glutathione S-transferase (GST) encoded by vector pGEX4T1
[2]
  fold more UNC-45 bound than by GST-CHN-1: ~20 fold
